Peptide text beside a SMILES is read from it.
Legend:
[1] = molecular target: T1, JNK3α1 (Homo sapiens, UniProt P53779); experiment: FRET displacement of labeled JIP1 peptide, JNK3α1; assay type: binding; settings: FRET IC50 for displacement of labeled JIP1 peptide, Inactive JNK3α1
[2] = molecular target: JNK3α1 (39–422) (UniProt P53779-2 39-422); experiment: ITC
[3] = molecular target: Active JNK1β1 (UniProt P45983-3 1-384, phosphorylated in the activation loop by incubation with active MKK4 and MKK7); experiment: FRET or BRET
[4] = molecular target: Inactive JNK1β1 (UniProt P45983-3 1-384); experiment: FRET or BRET
[5] = molecular target: Inactive JNK3α1, P53779; experiment: FRET or BRET
[6] = molecular target: active JNK3α1 (39–422) (UniProt P53779)
[7] = molecular target: T1, JNK3α1; experiment: Km of protein substrates for JNK3α1; assay type: biochemical; settings: read-out: Km for JNK3α1; protein substrate

Molecule | Kd [2] | dH [2] | IC50 [3] | IC50 [4] | further results
CC(C)C[C@H](NC(=O)[C@H](CC(N)=O)NC(=O)[C@H](CC(C)C)NC(=O)[C@@H](NC(=O)[C@@H](NC(=O)[C@@H]1CCCN1C(=O)[C@H](CCCN=C(N)N)NC(=O)[C@H](CCCCN)NC(=O)[C@@H]1CCCN1C(=O)[C@@H](N)CCCN=C(N)N)[C@@H](C)O)[C@@H](C)O)C(=O)N[C@@H](Cc1ccccc1)C(=O)O [pepJIP] (H-RPKRPTTLNLF-OH) |  |  |  |  | IC50 [1]: 1.7 ± 0.4 µM
CC(C)C[C@H](NC(=O)[C@H](CO)NC(=O)CNC(=O)[C@@H]1CCCN1C(=O)[C@H](CCCNC(=N)N)NC(=O)[C@@H](NC(=O)[C@@H](NC(=O)[C@H](C)N)C(C)C)C(C)C)C(=O)N[C@@H](CC(=O)O)C(=O)N[C@@H](CC(C)C)C(=O)N1CCC[C@H]1C(=O)O [pepSAB] (H-AVVRPGSLDLP-OH) |  |  |  |  | IC50 [1]: 834 ± 105 µM
RPKRPTTLNLF [pepJIPhu(157–167)] | 0.8 ± 0.1 µM | -7.65 kcal/mol | 0.68 ± 0.02 µM | 2.5 ± 0.1 µM | IC50 [5]: 1.7 µM
RPKHPTTLNLF [JIP1 R160H] | 11.7 ± 1 µM | -6.71 kcal/mol |  |  | 
RPKRPGTLNLF [JIP1 T162G] | 4.9 ± 0.5 µM | -7.11 kcal/mol |  |  | 
RPKQPTTLNLF [JIP1 R160Q] | 32.1 ± 3.2 µM | -5.46 kcal/mol |  |  | 
AVVRPGSLDLP [pepSABhu(40–350)] | 17.2 ± 0.6 µM | -4.02 kcal/mol | 386 ± 10 µM | 612 ± 21 µM | IC50 [5]: 834 µM
His-SAB (1–390) (domain or fragment) MDAALKRSRSEEPAEILPPARDEEEEEEEGMEQGLEEEEEVDPRIQGELEKLNQSTDDINRRETELEDARQKFRSVLVEATVKLDELVKKIGKAVEDSKPYWEARRVARQAQLEAQKATQDFQRATEVLRAAKETISLAEQRLLEDDKRQFDSAWQEMLNHATQRVMEAEQTKTRSELVHKETAARYNAAMGRMRQLEKKLKRAINKSKPYFELKAKYYVQLEQLKKTVDDLQAKLTLAKGEYKMALKNLEMISDEIHERRRSSAMGPRGCGVGAEGSSTSVEDLPGSKPEPDAISVASEAFEDDSCSNFVSEDDSETQSVSSFSSGPTSPSEMPDQFPAVVRPGSLDLPSPVSLSEFGMMFPVLGPRSECSGASSPECEVERGDRAEGA |  |  |  |  | Km of SAB (1–390) as substrate of JNK3α1 [6]: 0.77 µM
SAB (1–390): recombinant SAB protein substrate for JNK kinase assays (protein, left off: His, end not stated, kept) MDAALKRSRSEEPAEILPPARDEEEEEEEGMEQGLEEEEEVDPRIQGELEKLNQSTDDINRRETELEDARQKFRSVLVEATVKLDELVKKIGKAVEDSKPYWEARRVARQAQLEAQKATQDFQRATEVLRAAKETISLAEQRLLEDDKRQFDSAWQEMLNHATQRVMEAEQTKTRSELVHKETAARYNAAMGRMRQLEKKLKRAINKSKPYFELKAKYYVQLEQLKKTVDDLQAKLTLAKGEYKMALKNLEMISDEIHERRRSSAMGPRGCGVGAEGSSTSVEDLPGSKPEPDAISVASEAFEDDSCSNFVSEDDSETQSVSSFSSGPTSPSEMPDQFPAVVRPGSLDLPSPVSLSEFGMMFPVLGPRSECSGASSPECEVERGDRAEGA |  |  |  |  | Km [7]: 0.77 ± 0.09 µM
KHKHEMTLKFG [pepATF2Hu(46–56)] |  |  | 169 ± 2 µM | 350 ± 12 µM | 
